Results on 8 molecules are retold here after patent US6010897, “Expression of signal-peptide-free staphylokinases” (dated 2000).

Assay [1] concerns the target plasminogen (species not stated).
Assay [2] addresses human plasminogen, isolated from human plasma and immobilized on Protein-Pak epoxy-activated carrier (human, UniProt P00747). Put plainly: analytical affinity chromatography on immobilized human plasminogen, 16° C.

In the case of SAKM26L (artificial allelic SAK form), the specific activity in µmol plasmin/(µmol SAK × min) (µmol plasmin/(µmol SAK × min)) in assay [1] was determined as 36.6. For SAKM26C (artificial allelic SAK form), the specific activity in µmol plasmin/(µmol SAK × min) (µmol plasmin/(µmol SAK × min)) in assay [1] stood at 21.1.

As to “SAK42D (mature native staphylokinase of S. aureus phage 42D, expressed free of signal peptide in E. coli TG1(pMEX602sak)) (from UniProt P15240)”, the specific activity in µmol plasmin/(µmol SAK × min) (µmol plasmin/(µmol SAK × min)) in assay [1] came to 16.2. For “N14ΔSAK42D (SAK42D shortened by 14 amino acids at the N-terminus)”, the specific activity in µmol plasmin/(µmol SAK × min) (µmol plasmin/(µmol SAK × min)) in assay [1] turned out to be 8.1. In assay [1], “N10ΔSAK42D (SAK42D shortened by 10 amino acids at the N-terminus)” showed a specific activity in µmol plasmin/(µmol SAK × min) (µmol plasmin/(µmol SAK × min)) of 22.7.

B1: N10ΔSAK42D (SAK42D shortened by 10 amino acids at the N-terminus) (other)
chain: KGDDASYFEPTGPYLMVNVTGVDGKRNELLSPRYVEFPIKPGTTLTKEKIEYYVEWALDATAYKEFRVVELDPSAKIEVTYYDKNKKKEETKSFPITEKGFVVPDLSEHIKNPGFNLITKVVIEKK
As to B1, binding in assay [2] was put at a Kd of 2210 nM.

B2: SAK42D (mature native staphylokinase of S. aureus phage 42D, expressed free of signal peptide in E. coli TG1(pMEX602sak)) (other)
chain: SSSFDKGKYKKGDDASYFEPTGPYLMVNVTGVDGKRNELLSPRYVEFPIKPGTTLTKEKIEYYVEWALDATAYKEFRVVELDPSAKIEVTYYDKNKKKEETKSFPITEKGFVVPDLSEHIKNPGFNLITKVVIEKK
B2: the Kd (usually the concentration at which binding is half-saturated) in assay [2] is 1480 nM.

B3: N14ΔSAK42D (SAK42D shortened by 14 amino acids at the N-terminus) (other)
chain: ASYFEPTGPYLMVNVTGVDGKRNELLSPRYVEFPIKPGTTLTKEKIEYYVEWALDATAYKEFRVVELDPSAKIEVTYYDKNKKKEETKSFPITEKGFVVPDLSEHIKNPGFNLITKVVIEKK
Molecule B3 showed a Kd in assay [2] of 4400 nM.
